Square brackets hold non-standard residues; d marks the D form. pS = N[C@@H](COP(=O)(O)O)C(=O)O
B1: peptide 7 (peptide)
peptide: Ac-LSRRP[pS]YRKILNDLSSDAP-NH2
B2: peptide 7′ (peptide)
peptide: Ac-LKRRP[pS]YRKILNDLSSDAP-NH2

How the values were obtained:
[1] = molecular target: MBP-KIX-apoferritin construct 3 (24-mer double-shell complex) (not stated | mouse); experiment: fluorescence polarisation
[2] = molecular target: KIX domain of CREB-binding protein (CBP) (UniProt P45481 588-672); experiment: fluorescence polarisation
Sequence of KIX domain of CREB-binding protein (CBP) (P45481 588-672): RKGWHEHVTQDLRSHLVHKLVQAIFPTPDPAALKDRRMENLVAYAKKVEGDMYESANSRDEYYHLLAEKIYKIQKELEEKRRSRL

| Binder | IC50 [1] [µM] | IC50 [2] [µM] |
| --- | --- | --- |
| B1 | 311 | 50 |
| B2 | 170 | 24.2 |
